# Data taken from patent publication US20250270254A1, “PROBES AND KITS FOR THE EARLY DIAGNOSIS OF DIFUSE LARGE B-CELL LYMPHOMA” (BEIJING BOE TECHNOLOGY DEVELOPMENT CO., LTD., priority 2022, published 2025).
# Where a SMILES comes first, the peptide text is derived from it.
# System: diffuse large B-cell lymphoma cells
# Assay: Analysis of probe specificity: probe-coupled magnetic bead capture from mixed cells, flow cytometry
# Type: cell-based
# Settings: positive cells (diffuse large B-cell lymphoma cells) mixed with negative cells (HELA cells) 1:10; proportion of positive cells among captured cells by flow cytometry
# Procedure: The diagnostic specificity of the small molecular probe was detected using flow cytometry and the specific steps were as follows: • 1) Preparation of gradient concentration of cell samples: positive cells (diffuse large B-cell lymphoma cells) were mixed with negative cells (HELA cells) at a ratio of 1:10 and repeatedly pipetted to mix well; • 2) Probe-bead coupling: the reaction was performed in PBS buffer, with a bead-coupling concentration of 1 mg/mL, and 1 mg of beads corresponded to 10 μg of the BtaE3 probe, with gentle shaking for 1 h at room temperature. This was followed by washing five times with PBS buffer containing 0.01% BSA, standing for 30 s each time, and finally resuspending in PBS buffer at a concentration of 15 mg/mL; • 3) Positive cell enrichment: cells were thoroughly mixed with the magnetic bead suspension, with shaking by hand for 30 min at 4° C. in an ice box, followed by washing three times with PBS (containing 0.1% BSA and 2 mM EDTA) buffer and resuspending in PBS; • 4) Specificity analysis: The captured cells were separated using a magnetic field, and the protein expression profile was quantified by flow cytometry to calculate the proportion of positive cells.
row,Molecule,specificity for detection [%]
1,"CC[C@H](C)[C@H](N)C(=O)N[C@@H](CS)C(=O)N[C@@H](Cc1c[nH]c2ccccc12)C(=O)NCC(=O)N[C@@H](CCCNC(=N)N)C(=O)N[C@@H](CCCNC(=N)N)C(=O)N[C@@H](CCCNC(=N)N)C(=O)NCC(=O)NCC(=O)N[C@@H](Cc1ccccc1)C(=O)O [BtaE3, Ile-Cys-Trp-Gly-Arg3-Gly2-Phe] (H-ICWGRRRGGF-OH; N-terminus and C-terminus assumed)",> 90

# Target: CD138 (UniProt P18827 23-251)
# Sequence (P18827 23-251): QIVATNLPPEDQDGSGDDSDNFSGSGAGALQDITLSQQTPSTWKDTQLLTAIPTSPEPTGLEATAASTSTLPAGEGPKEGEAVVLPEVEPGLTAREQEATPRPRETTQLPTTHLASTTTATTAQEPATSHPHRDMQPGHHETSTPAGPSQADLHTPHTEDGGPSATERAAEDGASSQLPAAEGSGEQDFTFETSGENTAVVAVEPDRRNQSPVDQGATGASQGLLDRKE
# Assay: SPR imaging (SPRi); probe spotted on bare gold chip, CD138 flowed at 50-800 nM
# Settings: not given
row,Molecule,Kd [nM]
1,ICWGRRRGGF (Designed synthetic polypeptide probe; spotted on a bare gold SPRi chip; also called Ile-Cys-Trp-Gly-Arg3-Gly2-Phe) [BtaE3],0.121
2,HCWRGF (Synthetic polypeptide probe from the Mix-Split library; spotted on a bare gold SPRi chip; also called His-Cys-Trp-Arg-Gly-Phe) [Bta893],1.29
3,ICWRRRGGGF (Designed synthetic polypeptide probe; spotted on a bare gold SPRi chip; also called Ile-Cys-Trp-Arg3Gly3-Phe) [BtaE1],0.702
4,ICWGGRRRGGGF (Designed synthetic polypeptide probe; spotted on a bare gold SPRi chip; also called Ile-Cys-Trp-Gly2Arg3Gly3-Phe) [BtaE2],0.309
5,GCYRRF (Synthetic polypeptide probe from the Mix-Split library; spotted on a bare gold SPRi chip; also called Gly-Cys-Tyr-Arg-Arg-Phe) [Bta3097],5.26
6,CCHRGF (Synthetic polypeptide probe from the Mix-Split library; spotted on a bare gold SPRi chip; also called Cys-Cys-His-Arg-Gly-Phe) [Bta1335],2.57

# Now from value to molecule:
row,Kd [nM],Molecule
1,85.7,ICWRRRRRRRRRRRRRF (Designed synthetic polypeptide probe; spotted on a bare gold SPRi chip; also called Ile-Cys-Trp-Arg13-Phe) [BtaPL5]
2,1.02,ICWRRF (Designed synthetic polypeptide probe; spotted on a bare gold SPRi chip; also called Ile-Cys-Trp-Arg-Arg-Phe) [BtaP2]
3,0.977,ICWRRGI (Designed synthetic polypeptide probe; spotted on a bare gold SPRi chip; also called Ile-Cys-Trp-Arg-Arg-Gly-Ile) [BtaP3]
4,0.731,ICWRRRRRRRF (Designed synthetic polypeptide probe; spotted on a bare gold SPRi chip; also called Ile-Cys-Trp-Arg7-Phe) [BtaPL2]
5,6.56,ICWRRRRRRRRRF (Designed synthetic polypeptide probe; spotted on a bare gold SPRi chip; also called Ile-Cys-Trp-Arg9-Phe) [BtaPL3]
6,0.856,ICWRRRRRF (Designed synthetic polypeptide probe; spotted on a bare gold SPRi chip; also called Ile-Cys-Trp-Arg5-Phe) [BtaPL1]
7,9.21,ICWRRRRRRRRRRRF (Designed synthetic polypeptide probe; spotted on a bare gold SPRi chip; also called Ile-Cys-Trp-Arg11-Phe) [BtaPL4]
8,1.15,HCWRRF (Designed synthetic polypeptide probe; spotted on a bare gold SPRi chip; also called His-Cys-Trp-Arg-Arg-Phe) [BtaP1]
